The values that follow come from US7585498B2, “Regulation of adenovirus DNA packaging by IPTG” (The Research Foundation of State University of New York, priority 2001, dated 2009).

The test system of one experiment is N52.E6 cells. Briefly: Generation of virus stocks with IPTG in the media. In kind it is cell-based, human. The note with it: 2 mM IPTG in the media. An excerpt:
Towards the development of an all-inclusive helper virus whose packaging is specifically and selectively repressed while providing early and late gene products for complementation in trans of a gutted virus, the following recombinant Ad was constructed (FIG. 14). Ad-AV-VII(lac)^2-LacWT contains the AV-VII(lac)^2 minimal domain in place of the WT packaging domain as well as a CMV-M45-LacWT expression cassette. Ad-AV-VII^2-LacWT serves as a control, and contains the AV-VII^2 minimal domain without Lac binding sites, as well as the CMV-M45-LacWT expression cassette. These viruses were plaque purified and grown in N52.E6 cells. N52.E6 cells are a human amniocyte cell line transformed with Ad E1A and E1B sequences (Schiedner, Hertel et al. 2000). These cells contain only Ad nts 505-3522 and share no homologous sequence with the viral DNA constructs, thus eliminating the possibility of the generation of replication competent adenovirus (RCA) by recombination with Ad sequences present in other E1-containing cell lines. To generate stocks of these viruses, they were grown in N52.E6 cells with IPTG in the media at a concentration of 2 mM. IPTG is required in the media, as these viruses express Lac repressor protein that is able to bind to lac binding sites within the packaging domain and suppress packaging.

Experiment [1] concerns AV-VII(lac)^2 dimer probe. Briefly: Gel mobility shift assay, AV-VII(lac)^2 dimer probe. The note with it: whole cell extract of transfected 293 cells.
Experiment [2] deals with lac binding site monomer probe. Briefly: Gel mobility shift assay, lac binding site monomer probe. The note with it: whole cell extract of transfected 293 cells.

For `CC(C)S[C@@H]1O[C@H](CO)[C@H](O)[C@H](O)[C@H]1O` [IPTG, isopropyl-β-D-thiogalactopyranoside], in the experiment with N52.E6 cells, the “growth of Lac repressor expressing viruses” value is listed as “allowed for growth of these viruses”.

B1: LacWT: M45 epitope-tagged wild type E. coli Lac repressor protein in whole cell extract of transfected 293 cells (protein)
chain: MKPVTLYDVAEYAGVSYQTVSRVVNQASHVSAKTREKVEAAMAELNYIPNRVAQQLAGKQSLLIGVATSSLALHAPSQIVAAIKSRADQLGASVVVSMVERSGVEACKAAVHNLLAQRVSGLIINYPLDDQDAIAVEAACTNVPALFLDVSDQTPINSIIFSHEDGTRLGVEHLVALGHQQIALLAGPLSSVSARLRLAGWHKYLTRNQIQPIAEREGDWSAMSGFQQTMQMLNEGIVPTAMLVANDQMALGAMRAITESGLRVGADISVVGYDDTEDSSCYIPPLTTIKQDFRLLGQTSVDRLLQLSQGQAVKGNQLLPVSLVKRKTTLAPNTQTASPRALADSLMQLARQVSRLESGQ
modifications: left off: small tags and cut ends
As to B1, the “AV-VII(lac) dimer binding activity” value in experiment [1] is “detected”. Further, the “Lac site monomer binding activity” value in experiment [2] is reported as “detected”.
